According to patent publication US20230407373A1 (priority 2020, published 2023):
Read-outs that look alike come from different tables or passages of the source.

B1: PSPC1: host protein, UniProt Q8WXF1 (protein, UniProt Q8WXF1 1-523, looked up)
Paraspeckle component 1: MMLRGNLKQVRIEKNPARLRALESAVGESEPAAAAAMALALAGEPAPPAPAPPEDHPDEEMGFTIDIKSFLKPGEKTYTQRCRLFVGNLPTDITEEDFKRLFERYGEPSEVFINRDRGFGFIRLESRTLAEIAKAELDGTILKSRPLRIRFATHGAALTVKNLSPVVSNELLEQAFSQFGPVEKAVVVVDDRGRATGKGFVEFAAKPPARKALERCGDGAFLLTTTPRPVIVEPMEQFDDEDGLPEKLMQKTQQYHKEREQPPRFAQPGTFEFEYASRWKALDEMEKQQREQVDRNIREAKEKLEAEMEAARHEHQLMLMRQDLMRRQEELRRLEELRNQELQKRKQIQLRHEEEHRRREEEMIRHREQEELRRQQEGFKPNYMENREQEMRMGDMGPRGAINMGDAFSPAPAGNQGPPPMMGMNMNNRATIPGPPMGPGPAMGPEGAANMGTPMMPDNGAVHNDRFPQGPPSQMGSPMGSRTGSETPQAPMSGVGPVSGGPGGFGRGSQGGNFEGPNKRRRY
B2: EWSR1: host protein, UniProt Q01644 (protein, UniProt Q01844 1-656, looked up)
RNA-binding protein EWS: MASTDYSTYSQAAAQQGYSAYTAQPTQGYAQTTQAYGQQSYGTYGQPTDVSYTQAQTTATYGQTAYATSYGQPPTGYTTPTAPQAYSQPVQGYGTGAYDTTTATVTTTQASYAAQSAYGTQPAYPAYGQQPAATAPTRPQDGNKPTETSQPQSSTGGYNQPSLGYGQSNYSYPQVPGSYPMQPVTAPPSYPPTSYSSTQPTSYDQSSYSQQNTYGQPSSYGQQSSYGQQSSYGQQPPTSYPPQTGSYSQAPSQYSQQSSSYGQQSSFRQDHPSSMGVYGQESGGFSGPGENRSMSGPDNRGRGRGGFDRGGMSRGGRGGGRGGMGSAGERGGFNKPGGPMDEGPDLDLGPPVDPDEDSDNSAIYVQGLNDSVTLDDLADFFKQCGVVKMNKRTGQPMIHIYLDKETGKPKGDATVSYEDPPTAKAAVEWFDGKDFQGSKLKVSLARKKPPMNSMRGGLPPREGRGMPPPLRGGPGGPGGPGGPMGRMGGRGGDRGGFPPRGPRGSRGNPSGGGNVQHRAGDWQCPNPGCGNQNFAWRTECNQCKAPKPEGFLPPPFPPPGGDRGRGGPGGMRGGRGGLMDRGGPGGMFRGGRGGDRGGFRGGRGMDRGGFGGGRRGGPGGPPGPLMEQMGGRRGGRGGPGKMDKGEHRQERRDRPY
B3: RBM14: host protein, UniProt Q96PK6 (protein, UniProt Q96PK6 1-669, looked up)
RNA-binding protein 14: MKIFVGNVDGADTTPEELAALFAPYGTVMSCAVMKQFAFVHMRENAGALRAIEALHGHELRPGRALVVEMSRPRPLNTWKIFVGNVSAACTSQELRSLFERRGRVIECDVVKDYAFVHMEKEADAKAAIAQLNGKEVKGKRINVELSTKGQKKGPGLAVQSGDKTKKPGAGDTAFPGTGGFSATFDYQQAFGNSTGGFDGQARQPTPPFFGRDRSPLRRSPPRASYVAPLTAQPATYRAQPSVSLGAAYRAQPSASLGVGYRTQPMTAQAASYRAQPSVSLGAPYRGQLASPSSQSAAASSLGPYGGAQPSASALSSYGGQAAAASSLNSYGAQGSSLASYGNQPSSYGAQAASSYGVRAAASSYNTQGAASSLGSYGAQAASYGAQSAASSLAYGAQAASYNAQPSASYNAQSAPYAAQQAASYSSQPAAYVAQPATAAAYASQPAAYAAQATTPMAGSYGAQPVVQTQLNSYGAQASMGLSGSYGAQSAAAATGSYGAAAAYGAQPSATLAAPYRTQSSASLAASYAAQQHPQAAASYRGQPGNAYDGAGQPSAAYLSMSQGAVANANSTPPPYERTRLSPPRASYDDPYKKAVAMSKRYGSDRRLAELSDYRRLSESQLSFRRSPTKSSLDYRRLPDAHSDYARYSGSYNDYLRAAQMHSGYQRRM
B4: TIAL1: host protein, UniProt Q01085 (protein, UniProt Q01085 1-375, looked up)
Nucleolysin TIAR: MMEDDGQPRTLYVGNLSRDVTEVLILQLFSQIGPCKSCKMITEHTSNDPYCFVEFYEHRDAAAALAAMNGRKILGKEVKVNWATTPSSQKKDTSNHFHVFVGDLSPEITTEDIKSAFAPFGKISDARVVKDMATGKSKGYGFVSFYNKLDAENAIVHMGGQWLGGRQIRTNWATRKPPAPKSTQENNTKQLRFEDVVNQSSPKNCTVYCGGIASGLTDQLMRQTFSPFGQIMEIRVFPEKGYSFVRFSTHESAAHAIVSVNGTTIEGHVVKCYWGKESPDMTKNFQQVDYSQWGQWSQVYGNPQQYGQYMANGWQVPPYGVYGQPWNQQGFGVDQSPSAAWMGGFGAQPPQGQAPPPVIPPPNQAGYGMASYQTQ
B5: HNRNPM (protein, UniProt P52272 2-730, looked up)
Heterogeneous nuclear …: AAGVEAAAEVAATEIKMEEESGAPGVPSGNGAPGPKGEGERPAQNEKRKEKNIKRGGNRFEPYANPTKRYRAFITNIPFDVKWQSLKDLVKEKVGEVTYVELLMDAEGKSRGCAVVEFKMEESMKKAAEVLNKHSLSGRPLKVKEDPDGEHARRAMQKVMATTGGMGMGPGGPGMITIPPSILNNPNIPNEIIHALQAGRLGSTVFVANLDYKVGWKKLKEVFSMAGVVVRADILEDKDGKSRGIGTVTFEQSIEAVQAISMFNGQLLFDRPMHVKMDERALPKGDFFPPERPQQLPHGLGGIGMGLGPGGQPIDANHLNKGIGMGNIGPAGMGMEGIGFGINKMGGMEGPFGGGMENMGRFGSGMNMGRINEILSNALKRGEIIAKQGGGGGGGSVPGIERMGPGIDRLGGAGMERMGAGLGHGMDRVGSEIERMGLVMDRMGSVERMGSGIERMGPLGLDHMASSIERMGQTMERIGSGVERMGAGMGFGLERMAAPIDRVGQTIERMGSGVERMGPAIERMGLSMERMVPAGMGAGLERMGPVMDRMATGLERMGANNLERMGLERMGANSLERMGLERMGANSLERMGPAMGPALGAGIERMGLAMGGGGGASFDRAIEMERGNFGGSFAGSFGGAGGHAPGVARKACQIFVRNLPFDFTWKMLKDKFNECGHVLYADIKMENGKSKGCGVVKFESPEVAERACRMMNGMKLSGREIDVRIDRNA
B6: CNBP: host protein, UniProt P62633 (protein, UniProt P62633 2-177, looked up)
CCHC-type zinc finger nucleic …: SSNECFKCGRSGHWARECPTGGGRGRGMRSRGRGGFTSDRGFQFVSSSLPDICYRCGESGHLAKDCDLQEDACYNCGRGGHIAKDCKEPKREREQCCYNCGKPGHLARDCDHADEQKCYSCGEFGHIQKDCTKVKCYRCGETGHVAINCSKTSEVNCYRCGESGHLARECTIEATA

Columns and labels:
Format in all cases: binding
SARS-CoV-2 gRNA = settings: […]; LC-MS/MS; Probe I sample (first 199 lines of Table 2)
HCoV-OC43 gRNA and sgRNA = settings: for target (unweighted spectral count, OC43 Probe II capture) / target (spectral count) / background (spectral count): 36 hpi; for target (unweighted spectral count, OC43 Probe II capture): type n_36_v, FDR<10%; for target (unweighted spectral count, OC43 Probe II capture) / target (unweighted spectral count): tested against no-probe control; for target (unweighted spectral count): OC43 Probe II, infected cells; for target (unweighted spectral count, OC43 Probe II) / background (unweighted spectral count, no-probe control): type n_48_v, 48 hpi; for target (unweighted spectral count, OC43 Probe II): OC43 Probe II capture on infected cells; for background (unweighted spectral count, no-probe control): no-probe control on infected cells; for target (spectral count) / background (spectral count): type s_36_m, Probe II; for target (spectral count): HCoV-OC43-infected HCT-8 cells; for background (spectral count): uninfected-probe control
[1] = system: SARS-CoV-2 gRNA and sgRNAs; settings: for target (unweighted spectral count in RNP capture): Probe II capture, LC-MS/MS LFQ; for background (unweighted spectral count in control): no-probe control pull-down, used as background for Probe II
gRNA of HCoV-OC43 = settings: for target (spectral count) / background (spectral count): type g_36_m, 36 hpi, Probe I; for target (spectral count): HCoV-OC43-infected HCT-8 cells; for background (spectral count): uninfected-probe control; for target (spectral count, OC43 Probe I RNP capture) / background (spectral count, no-probe control): type n_48_v: 48 hours post-infection; for target (spectral count, OC43 Probe I RNP capture): infected cells, unweighted spectral count; for background (spectral count, no-probe control): no-probe control on infected cells

Molecule	target (unweighted spectral count of the protein in the RNP capture) (SARS-CoV-2 gRNA)	target (unweighted spectral count, OC43 Probe II capture) (HCoV-OC43 gRNA and sgRNA)	target (unweighted spectral count) (HCoV-OC43 gRNA and sgRNA; 12 hpi (type n_12_v))	target (unweighted spectral count) (HCoV-OC43 gRNA and sgRNA; 24 hpi (type n_24_v))	target (unweighted spectral count, OC43 Probe II) (HCoV-OC43 gRNA and sgRNA)	background (unweighted spectral count, no-probe control) (HCoV-OC43 gRNA and sgRNA)	target (spectral count) (HCoV-OC43 gRNA and sgRNA)	background (spectral count) (HCoV-OC43 gRNA and sgRNA)	target (unweighted spectral count in RNP capture) [1]	background (unweighted spectral count in control) [1]	target (spectral count) (gRNA of HCoV-OC43)	background (spectral count) (gRNA of HCoV-OC43)	target (spectral count, OC43 Probe I RNP capture) (gRNA of HCoV-OC43)	background (spectral count, no-probe control) (gRNA of HCoV-OC43)
B1	7	14	4	8	14	1	14	1	10	1	12	1	20	1
B2	9	9	–	6	10	1	9	1	7	1	–	–	8	1
B3	9	14	5	–	17	2	–	–	10	1	20	2	19	2
B4	10	9	–	7	11	1	9	1	25	1	–	–	11	1
B5	71	73	22	34	–	–	–	–	53	1	–	–	65	7
B6	74	14	5	12	19	2	–	–	44	1	15	2	22	2
